Measured values: patent US20210008180A1, “FORMULATIONS CONTAINING MUCIN-AFFECTING PROTEASES” (MUCPHARM PTY LTD, priority 2018, published 2021)

Tests used:
[1] = tested on: HT29 cells; experiment: Efficacy of Papain released from DC Beads in Transwell chamber; type: cell-based, human; conditions: 5 mg/ml Papain (500 μg/80 μl beads) loaded beads in Transwell chamber; after 3 hours
Experimental: Subsequently, experiments were conducted to determine the efficacy of the Papain released from the beads. In these experiments, HT29 cells (human colorectal cancer cell line) were seeded in 24 well plates. After 24 h, the plates were treated with 5 mg/ml Papain (500 μg/80 μl beads) loaded beads in a Transwell chamber. After every 3 h, the Transwell chamber containing beads was transferred to a fresh well. This process was continued up to 3 days.

[2] = Release of Papain from DC Beads (300-500 μm), azo-casein assay; type: physicochemical; conditions: 80 μL, loaded from 200 μL 5 mg/mL Papain, 6 hrs, 5 mL PBS pH 6.5
Experimental: 80 μL of DC Beads® (300-500 μm) were taken in a 1.5 mL centrifuge tube and washed twice with distilled water. 200 μL of a 5 mg/mL Papain solution was added and the mixture incubated at room temperature for 6 hrs with gentle agitation. The beads were then washed twice with distilled water and suspended in 5 mL PBS pH 6.5. The first sample of 250 μL was taken at 30 min, and thereafter samples were taken every hour for the next 16 hrs, with 250 μL PBS being replaced each time. The Papain concentration in the samples was measured by azo-casein assay and the cumulative release of Papain from the DC Beads as a function of time is set out in Graph shown below.

B1: Papain: plant-derived mucin-affecting protease enzyme extracted from papaya; loaded into DC Beads 300-500 μm (protein, UniProt P00784 134-345, looked up)
Papain: IPEYVDWRQKGAVTPVKNQGSCGSCWAFSAVVTIEGIIKIRTGNLNEYSEQELLDCDRRSYGCNGGYPWSALQLVAQYGIHYRNTYPYEGVQRYCRSREKGPYAAKTDGVRQVQPYNEGALLYSIANQPVSVVLEAAGKDFQLYRGGIFVGPCGNKVDHAVAAVGYGPNYILIKNSWGTGWGENGYIRIKRGTGNSYGVCGLYTSSFYPVKN
modifications: loaded into DC Beads
notes: plant-derived mucin-affecting protease enzyme extracted from papaya; loaded into DC Beads 300-500 μm
- effect of Papain released from the DC Beads on cells [1]: death of all cells
- duration of sustained release of Papain [2]: greater than 16 hours
